B4: rat Unc5D ectodomain (Unc5D^ecto), biotinylated at a C-terminal Avitag (domain or fragment)
chain: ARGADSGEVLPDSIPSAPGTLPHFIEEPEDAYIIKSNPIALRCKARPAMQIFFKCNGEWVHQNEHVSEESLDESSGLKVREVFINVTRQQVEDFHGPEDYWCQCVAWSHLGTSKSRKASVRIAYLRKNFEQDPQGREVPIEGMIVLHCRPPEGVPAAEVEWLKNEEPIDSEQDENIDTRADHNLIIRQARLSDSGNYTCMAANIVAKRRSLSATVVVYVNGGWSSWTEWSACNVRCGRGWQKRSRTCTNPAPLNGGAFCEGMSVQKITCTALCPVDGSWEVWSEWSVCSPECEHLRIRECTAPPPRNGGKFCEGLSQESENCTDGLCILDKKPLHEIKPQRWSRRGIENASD
modifications: biotin on the C-terminal Avitag (enzymatic)

Assays:
[1] = target: B4; test: SPR; apparent KD; FLRT2LRR mixed with Lphn3Lec-Olf
[2] = target: T1, Olf domain of mouse Latrophilin3 (Lphn3^Olf) (mouse, UniProt Q80TS3-3 199-495); test: ITC
T1 chain: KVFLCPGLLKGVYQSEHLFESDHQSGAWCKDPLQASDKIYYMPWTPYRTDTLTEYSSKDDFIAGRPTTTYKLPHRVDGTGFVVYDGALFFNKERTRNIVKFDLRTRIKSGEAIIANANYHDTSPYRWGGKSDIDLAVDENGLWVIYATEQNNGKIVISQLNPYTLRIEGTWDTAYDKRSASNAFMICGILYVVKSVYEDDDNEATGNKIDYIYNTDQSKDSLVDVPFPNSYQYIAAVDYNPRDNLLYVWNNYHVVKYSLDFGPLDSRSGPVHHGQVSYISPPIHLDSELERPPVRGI

[3] = target: T2, Unc5D ectodomain (Unc5D^ecto), ITC construct (human (methods; the results say rat), UniProt Q6UXZ4 32-383); test: ITC
[4] = target: T2, Unc5D ectodomain (Unc5D^ecto), ITC …; test: ITC; FLRT2ecto premixed 1:1 with Lphn3Olf
[5] = target: FLRT2^LRR+Lphn3^Lec–Olf DDD mutant (mouse, UniProt Q8BLU0 35-362; Q80TS3-3 92-463, D397N | D399T, artificial N-linked glycan at position 397); test: SPR; apparent KD; FLRT2LRR mixed with Lphn3Lec-Olf DDD mutant

T2 sequence (Q6UXZ4 32-383): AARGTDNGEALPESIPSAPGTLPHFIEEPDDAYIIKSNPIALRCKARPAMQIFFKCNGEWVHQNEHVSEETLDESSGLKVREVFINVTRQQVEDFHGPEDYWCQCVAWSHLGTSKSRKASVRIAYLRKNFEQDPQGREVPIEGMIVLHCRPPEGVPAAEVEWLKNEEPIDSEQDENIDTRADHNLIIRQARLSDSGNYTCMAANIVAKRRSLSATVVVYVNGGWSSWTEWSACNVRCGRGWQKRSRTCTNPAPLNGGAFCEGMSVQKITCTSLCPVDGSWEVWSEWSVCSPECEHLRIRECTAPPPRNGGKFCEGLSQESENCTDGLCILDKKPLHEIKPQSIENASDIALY

B1: FLRT2^LRR+Lphn3^Lec–Olf (mixed in a 1:2 molar ratio) (complex)
chain 1: ACPSVCRCDRNFVYCNERSLTSVPLGIPEGVTVLYLHNNQINNAGFPAELHNVQSVHTVYLYGNQLDEFPMNLPKNVRVLHLQENNIQTISRAALAQLLKLEELHLDDNSISTVGVEDGAFREAISLKLLFLSKNHLSSVPVGLPVDLQELRVDENRIAVISDMAFQNLTSLERLIVDGNLLTNKGIAEGTFSHLTKLKEFSIVRNSLSHPPPDLPGTHLIRLYLQDNQINHIPLTAFANLRKLERLDISNNQLRMLTQGVFDHLSNLKQLTARNNPWFCDCSIKWVTEWLKYIPSSLNVRGFMCQGPEQVRGMAVRELNMNLLSCPT
chain 2: PIPMAVVRRELSCESYPIELRCPGTDVIMIESANYGRTDDKICDSDPAQMENIRCYLPDAYKIMSQRCNNRTQCAVVAGPDVFPDPCPGTYKYLEVQYECVPYKVEQKVFLCPGLLKGVYQSEHLFESDHQSGAWCKDPLQASDKIYYMPWTPYRTDTLTEYSSKDDFIAGRPTTTYKLPHRVDGTGFVVYDGALFFNKERTRNIVKFDLRTRIKSGEAIIANANYHDTSPYRWGGKSDIDLAVDENGLWVIYATEQNNGKIVISQLNPYTLRIEGTWDTAYDKRSASNAFMICGILYVVKSVYEDDDNEATGNKIDYIYNTDQSKDSLVDVPFPNSYQYIAAVDYNPRDNLLYVWNNYHVVKYSLDFGPLD
- Kd [1]: ~9 nM

B2: mouse FLRT2 ectodomain (FLRT2^ecto), ITC construct (domain or fragment)
chain: CPSVCRCDRNFVYCNERSLTSVPLGIPEGVTVLYLHNNQINNAGFPAELHNVQSVHTVYLYGNQLDEFPMNLPKNVRVLHLQENNIQTISRAALAQLLKLEELHLDDNSISTVGVEDGAFREAISLKLLFLSKNHLSSVPVGLPVDLQELRVDENRIAVISDMAFQNLTSLERLIVDGNLLTNKGIAEGTFSHLTKLKEFSIVRNSLSHPPPDLPGTHLIRLYLQDNQINHIPLTAFANLRKLERLDISNNQLRMLTQGVFDHLSNLKQLTARNNPWFCDCSIKWVTEWLKYIPSSLNVRGFMCQGPEQVRGMAVRELNMNLLSCPTTTPGLPVFTPAPSTVSPTTQSPTLSVPSPSRGSVPPAPTPSKLPTIPDWDGRERVTPPISERIQLSIHFVNDTSIQVSWLSLFTVMAYKLTWVKMGHSLVGGIVQERIVSGEKQHLSLVNLEPRSTYRICLVPLDAFNYRTVEDTICSEATTHASYLNNGSNTASSHEQTTSHSMGSPF
- Kd [2]: 9.7 nM
- Kd [3]: 2300 nM

B3: FLRT2^ecto+Lphn3^Olf (kept together in the ITC cell) (complex)
chain 1: CPSVCRCDRNFVYCNERSLTSVPLGIPEGVTVLYLHNNQINNAGFPAELHNVQSVHTVYLYGNQLDEFPMNLPKNVRVLHLQENNIQTISRAALAQLLKLEELHLDDNSISTVGVEDGAFREAISLKLLFLSKNHLSSVPVGLPVDLQELRVDENRIAVISDMAFQNLTSLERLIVDGNLLTNKGIAEGTFSHLTKLKEFSIVRNSLSHPPPDLPGTHLIRLYLQDNQINHIPLTAFANLRKLERLDISNNQLRMLTQGVFDHLSNLKQLTARNNPWFCDCSIKWVTEWLKYIPSSLNVRGFMCQGPEQVRGMAVRELNMNLLSCPTTTPGLPVFTPAPSTVSPTTQSPTLSVPSPSRGSVPPAPTPSKLPTIPDWDGRERVTPPISERIQLSIHFVNDTSIQVSWLSLFTVMAYKLTWVKMGHSLVGGIVQERIVSGEKQHLSLVNLEPRSTYRICLVPLDAFNYRTVEDTICSEATTHASYLNNGSNTASSHEQTTSHSMGSPF
chain 2: KVFLCPGLLKGVYQSEHLFESDHQSGAWCKDPLQASDKIYYMPWTPYRTDTLTEYSSKDDFIAGRPTTTYKLPHRVDGTGFVVYDGALFFNKERTRNIVKFDLRTRIKSGEAIIANANYHDTSPYRWGGKSDIDLAVDENGLWVIYATEQNNGKIVISQLNPYTLRIEGTWDTAYDKRSASNAFMICGILYVVKSVYEDDDNEATGNKIDYIYNTDQSKDSLVDVPFPNSYQYIAAVDYNPRDNLLYVWNNYHVVKYSLDFGPLDSRSGPVHHGQVSYISPPIHLDSELERPPVRGI
- Kd [4]: 106 nM

Binder: B4
- Kd [5]: ~9 nM
